Target: LITAF (LPS-induced TNF-α factor), full length
Assay: cell-based or functional assay

Sequence of LITAF (LPS-induced TNF-α factor), full length (chain, as listed by the source limits assumed): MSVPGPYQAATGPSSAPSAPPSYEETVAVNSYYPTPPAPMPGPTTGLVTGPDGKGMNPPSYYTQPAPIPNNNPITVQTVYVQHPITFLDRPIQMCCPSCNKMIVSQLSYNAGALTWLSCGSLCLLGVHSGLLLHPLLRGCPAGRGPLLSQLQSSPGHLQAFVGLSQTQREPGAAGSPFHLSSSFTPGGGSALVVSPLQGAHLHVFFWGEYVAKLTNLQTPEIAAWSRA

B1: STAT6(B) (Signal transducer and activator of transcription), full length, aa 1-404 (other)
chain: MARRNPSPPLQRLRDWGHHHCPCHPGPGWLSTDGEHPAILCQRPVHSLTGGPNPGSCSAQKSLSQEAQGGGFPEPLQAWAGTGCSDSFLSPTSSLLPAALLSLPVCHPDVTPYFIAVLLLLPHDPCPPFPPPFLPNPRALHGCLFLLTTAEQMGKDGRGYVPATIKMTVERGVWWYGQWVGQGLVVLICRKEGWHQPLVSHMYLLPSSRDQPLPTPELQMPTMVPSYDLGMAPDSSMSMQLGPDMVPQVYPPHSHSIPPYQGLSPEESVNVLSAFQEPHLQMPPSLGQMSLSFDQPHPQGLLPCQPQEHAVSSPDPLLCSDVTTVEDSCLSQPVTAFPQGTWIGEDIFPPLLPPTEQDLTKLLLEGQGESGGGSLGAQPLLQPSHYGQSGISMSHMDLRANPSW
**Q.** For B1, which “TNF-promoter activity (luciferase), U2OS cells, co-transfection versus LITAF alone” value is on record?
**A.** 1.5 fold

**Q.** What about the “TNF-α in supernatants of transfected THP-1 cells (ELISA), versus LITAF alone” value of the same binder?
**A.** 1.8 fold

**Q.** And the “cytokine antibody array, 'W-10' (probably IL-10), THP-1 cells co-transfected with LITAF and STAT6(B)” value?
**A.** 10 fold

**Q.** What about the “cytokine antibody array, GRO, THP-1 cells co-transfected with LITAF and STAT6(B)” value of the same binder?
**A.** 2.1 fold

**Q.** And the “cytokine antibody array, IFN-γ, THP-1 cells co-transfected with LITAF and STAT6(B)” value?
**A.** 6.2 fold

**Q.** And the “cytokine antibody array, IL-1α, THP-1 cells co-transfected with LITAF and STAT6(B)” value?
**A.** 3 fold

**Q.** What about the “cytokine antibody array, MCP-2, THP-1 cells co-transfected with LITAF and STAT6(B)” value of the same binder?
**A.** 8.5 fold

**Q.** And the “cytokine antibody array, RANTES, THP-1 cells co-transfected with LITAF and STAT6(B)” value?
**A.** 3.2 fold

**Q.** What about the “cytokine antibody array, TNF-α, THP-1 cells co-transfected with LITAF and STAT6(B)” value of the same binder?
**A.** 4 fold
